Numbered stars: 1 amine (or outer) side, 2 acyl side, 3 side chain; on linkers, the order of the positions; unused ones are H or OH. Bridge positions count the residues as written; N and C are the ends. Side chains are listed from the residue outwards. Ends that are not written are not given here. * marks the point of attachment. C20 diacid = O=C(O)CCCCCCCCCCCCCCCCCCC(=O)*; γGlu = O=C(O)[C@H](CCC(=O)[*:2])N[*:1]
T1: human calcitonin receptor (human, UniProt P30988 25-474)
T1 construct: whole, on cells; also called hCTR; hCT
T1 sequence (looked up): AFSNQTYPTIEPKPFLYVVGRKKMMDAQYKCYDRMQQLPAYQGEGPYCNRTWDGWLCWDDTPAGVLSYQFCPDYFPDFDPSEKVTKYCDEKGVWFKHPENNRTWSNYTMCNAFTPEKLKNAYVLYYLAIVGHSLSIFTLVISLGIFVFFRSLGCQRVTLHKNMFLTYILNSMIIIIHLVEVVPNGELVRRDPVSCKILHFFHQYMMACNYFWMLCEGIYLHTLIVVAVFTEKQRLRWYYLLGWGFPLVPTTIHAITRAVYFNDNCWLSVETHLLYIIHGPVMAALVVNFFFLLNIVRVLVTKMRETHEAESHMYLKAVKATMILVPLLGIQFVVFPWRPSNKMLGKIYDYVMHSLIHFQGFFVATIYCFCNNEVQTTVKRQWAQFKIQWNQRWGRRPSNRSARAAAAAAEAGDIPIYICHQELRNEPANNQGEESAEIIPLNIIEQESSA

T2: human amylin receptor (amylin 3(a) receptor: human calcitonin receptor plus RAMP-3) (human, UniProt P30988 25-474; O60896 24-148)
T2 construct: whole, on cells; the species of RAMP-3 is told only through the name 'human amylin receptor'; also called hAmylin-R; hAmylinR
T2 sequence (looked up) 1: T1 sequence (looked up)
T2 sequence (looked up) 2: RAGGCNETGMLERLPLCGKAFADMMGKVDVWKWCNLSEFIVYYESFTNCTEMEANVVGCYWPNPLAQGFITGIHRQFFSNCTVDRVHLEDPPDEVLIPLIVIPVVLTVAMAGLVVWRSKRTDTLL

B1: N^α1-[(4S)-4-carboxy-4-(19-carboxynonadecanoylamino)butanoyl]-[Arg17,Pro21,Pro27,Pro34,Glu35]-h-amylin (peptide)
peptide: {C20 diacid-γGlu}-KCNTATCATQRLANFLRHSSPNFGAIPSSTNVGPETY-NH2
modifications: disulfide 2-7
SMILES: CC[C@H](C)[C@H](NC(=O)[C@H](C)NC(=O)CNC(=O)[C@H](Cc1ccccc1)NC(=O)[C@H](CC(N)=O)NC(=O)[C@@H]1CCCN1C(=O)[C@H](CO)NC(=O)[C@H](CO)NC(=O)[C@H](Cc1c[nH]cn1)NC(=O)[C@H](CCCNC(=N)N)NC(=O)[C@H](CC(C)C)NC(=O)[C@H](Cc1ccccc1)NC(=O)[C@H](CC(N)=O)NC(=O)[C@H](C)NC(=O)[C@H](CC(C)C)NC(=O)[C@H](CCCNC(=N)N)NC(=O)[C@H](CCC(N)=O)NC(=O)[C@@H](NC(=O)[C@H](C)NC(=O)[C@@H]1CSSC[C@H](NC(=O)[C@H](CCCCN)NC(=O)CC[C@H](NC(=O)CCCCCCCCCCCCCCCCCCC(=O)O)C(=O)O)C(=O)N[C@@H](CC(N)=O)C(=O)N[C@@H]([C@@H](C)O)C(=O)N[C@@H](C)C(=O)N[C@@H]([C@@H](C)O)C(=O)N1)[C@@H](C)O)C(=O)N1CCC[C@H]1C(=O)N[C@@H](CO)C(=O)N[C@@H](CO)C(=O)N[C@H](C(=O)N[C@@H](CC(N)=O)C(=O)N[C@H](C(=O)NCC(=O)N1CCC[C@H]1C(=O)N[C@@H](CCC(=O)O)C(=O)N[C@H](C(=O)N[C@@H](Cc1ccc(O)cc1)C(N)=O)[C@@H](C)O)C(C)C)[C@@H](C)O
notes: also called compound 29
B2: N^α1-[(4S)-4-carboxy-4-(19-carboxynonadecanoylamino)butanoyl]-[Glu14,Arg17,Pro21,Pro27,Pro34]-h-amylin (peptide)
peptide: {C20 diacid-γGlu}-KCNTATCATQRLAEFLRHSSPNFGAIPSSTNVGPNTY-NH2
modifications: disulfide 2-7
SMILES: CC[C@H](C)[C@H](NC(=O)[C@H](C)NC(=O)CNC(=O)[C@H](Cc1ccccc1)NC(=O)[C@H](CC(N)=O)NC(=O)[C@@H]1CCCN1C(=O)[C@H](CO)NC(=O)[C@H](CO)NC(=O)[C@H](Cc1c[nH]cn1)NC(=O)[C@H](CCCNC(=N)N)NC(=O)[C@H](CC(C)C)NC(=O)[C@H](Cc1ccccc1)NC(=O)[C@H](CCC(=O)O)NC(=O)[C@H](C)NC(=O)[C@H](CC(C)C)NC(=O)[C@H](CCCNC(=N)N)NC(=O)[C@H](CCC(N)=O)NC(=O)[C@@H](NC(=O)[C@H](C)NC(=O)[C@@H]1CSSC[C@H](NC(=O)[C@H](CCCCN)NC(=O)CC[C@H](NC(=O)CCCCCCCCCCCCCCCCCCC(=O)O)C(=O)O)C(=O)N[C@@H](CC(N)=O)C(=O)N[C@@H]([C@@H](C)O)C(=O)N[C@@H](C)C(=O)N[C@@H]([C@@H](C)O)C(=O)N1)[C@@H](C)O)C(=O)N1CCC[C@H]1C(=O)N[C@@H](CO)C(=O)N[C@@H](CO)C(=O)N[C@H](C(=O)N[C@@H](CC(N)=O)C(=O)N[C@H](C(=O)NCC(=O)N1CCC[C@H]1C(=O)N[C@@H](CC(N)=O)C(=O)N[C@H](C(=O)N[C@@H](Cc1ccc(O)cc1)C(N)=O)[C@@H](C)O)C(C)C)[C@@H](C)O
notes: also called compound 32
B3: N^α1-[(4S)-4-carboxy-4-(19-carboxynonadecanoylamino)butanoyl]-[Glu14,Arg17,Pro21,Pro27,His34]-h-amylin (peptide)
peptide: {C20 diacid-γGlu}-KCNTATCATQRLAEFLRHSSPNFGAIPSSTNVGHNTY-NH2
modifications: disulfide 2-7
SMILES: CC[C@H](C)[C@H](NC(=O)[C@H](C)NC(=O)CNC(=O)[C@H](Cc1ccccc1)NC(=O)[C@H](CC(N)=O)NC(=O)[C@@H]1CCCN1C(=O)[C@H](CO)NC(=O)[C@H](CO)NC(=O)[C@H](Cc1c[nH]cn1)NC(=O)[C@H](CCCNC(=N)N)NC(=O)[C@H](CC(C)C)NC(=O)[C@H](Cc1ccccc1)NC(=O)[C@H](CCC(=O)O)NC(=O)[C@H](C)NC(=O)[C@H](CC(C)C)NC(=O)[C@H](CCCNC(=N)N)NC(=O)[C@H](CCC(N)=O)NC(=O)[C@@H](NC(=O)[C@H](C)NC(=O)[C@@H]1CSSC[C@H](NC(=O)[C@H](CCCCN)NC(=O)CC[C@H](NC(=O)CCCCCCCCCCCCCCCCCCC(=O)O)C(=O)O)C(=O)N[C@@H](CC(N)=O)C(=O)N[C@@H]([C@@H](C)O)C(=O)N[C@@H](C)C(=O)N[C@@H]([C@@H](C)O)C(=O)N1)[C@@H](C)O)C(=O)N1CCC[C@H]1C(=O)N[C@@H](CO)C(=O)N[C@@H](CO)C(=O)N[C@H](C(=O)N[C@@H](CC(N)=O)C(=O)N[C@H](C(=O)NCC(=O)N[C@@H](Cc1c[nH]cn1)C(=O)N[C@@H](CC(N)=O)C(=O)N[C@H](C(=O)N[C@@H](Cc1ccc(O)cc1)C(N)=O)[C@@H](C)O)C(C)C)[C@@H](C)O
notes: also called compound 17
B4: N^ε1-[(4S)-4-carboxy-4-[[(4S)-4-carboxy-4-(19-carboxynonadecanoylamino)butanoyl]amino]butanoyl]-[Asp14,Arg17,Pro21,Pro27,Asp35]-h-amylin (peptide)
peptide: K([γGlu-γGlu-C20 diacid])CNTATCATQRLADFLRHSSPNFGAIPSSTNVGSDTY-NH2
modifications: disulfide 2-7; N-terminus assumed
SMILES: CC[C@H](C)[C@H](NC(=O)[C@H](C)NC(=O)CNC(=O)[C@H](Cc1ccccc1)NC(=O)[C@H](CC(N)=O)NC(=O)[C@@H]1CCCN1C(=O)[C@H](CO)NC(=O)[C@H](CO)NC(=O)[C@H](Cc1c[nH]cn1)NC(=O)[C@H](CCCNC(=N)N)NC(=O)[C@H](CC(C)C)NC(=O)[C@H](Cc1ccccc1)NC(=O)[C@H](CC(=O)O)NC(=O)[C@H](C)NC(=O)[C@H](CC(C)C)NC(=O)[C@H](CCCNC(=N)N)NC(=O)[C@H](CCC(N)=O)NC(=O)[C@@H](NC(=O)[C@H](C)NC(=O)[C@@H]1CSSC[C@H](NC(=O)[C@@H](N)CCCCNC(=O)CC[C@H](NC(=O)CC[C@H](NC(=O)CCCCCCCCCCCCCCCCCCC(=O)O)C(=O)O)C(=O)O)C(=O)N[C@@H](CC(N)=O)C(=O)N[C@@H]([C@@H](C)O)C(=O)N[C@@H](C)C(=O)N[C@@H]([C@@H](C)O)C(=O)N1)[C@@H](C)O)C(=O)N1CCC[C@H]1C(=O)N[C@@H](CO)C(=O)N[C@@H](CO)C(=O)N[C@H](C(=O)N[C@@H](CC(N)=O)C(=O)N[C@H](C(=O)NCC(=O)N[C@@H](CO)C(=O)N[C@@H](CC(=O)O)C(=O)N[C@H](C(=O)N[C@@H](Cc1ccc(O)cc1)C(N)=O)[C@@H](C)O)C(C)C)[C@@H](C)O
notes: also called compound 2

Target: T1, human calcitonin receptor
Experiment: ratio of IC50 at hCTR to IC50 at the human amylin receptor (reference)
Procedure, shortened: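 Competition binding by SPA uses membrane preparations (35 ng/μL final) in pH 7.4 Hepes buffer with 1 mM CaCl2 and 5 mM MgCl₂. Incubation lasts 120 min at 25° C, and IC₅₀ comes from one-site fitting.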

Row | Ratio hCT/hAmylin binding | Binder
1 | 13.9 | B1
2 | 10.9 | B2
3 | 12.5 | B3
4 | 47.5 | B4

Target: T2, human amylin receptor (amylin 3(a) …)
Experiment: SPA competition binding, membranes with human amylin 3(a) receptor, displacement of 125I-rat amylin (Assay V)
Experimental: The binding assay was performed using scintillation proximity assay (SPA) beads (RPNQ0001) from PerkinElmer and cell membranes from the Amylin 3(a)/CRE-luc cells (as described in Assay (II)) were used. Membranes were prepared in the following way; the cells were rinsed with PBS and incubated with Versene for approximately 5 min before harvesting. The cells were flushed with PBS and the cell-suspension was centrifuged for 5 min at 1000 rpm. Cells were homogenized (ultrathurrax) in a buffer containing 20 mM Na-HEPES and 10 mM EDTA (pH 7.4) and centrifuged at 20.000 rpm for 15 min. The resulting pellet was resuspended, homogenized and centrifuged (20.000 rpm, 15 min) in a buffer containing 20 mM Na-HEPES and 0.1 mM EDTA (pH 7.4, buffer 2). The resulting pellet was resuspended in buffer 2 and protein concentration was measured (BCA protein Assay, Pierce). The homogenate was kept cold during the whole procedure. The membranes were kept at −80° C. until use. The assay was performed in a 384 well Optiplate (PerkinElmer) in a total volume of 40 ul. Membranes were mixed with SPA beads. Final concentration of membranes 35 ng/μL final and SPA beads was 0.05 mg/well. Test-compounds were dissolved in DMSO and further diluted in assay buffer (50 mM Hepes, pH 7.4, 1 mM CaCl2, 5 mM MgCl₂, 0.1% OA and 0.02% Tween20). […] The final mixture was incubated with shaking at 400 rpm for 120 min at 25° C. prior to centrifugation (1500 rpm, 10 min). Samples were analyzed on TopCounter™ (Packard). The IC₅₀ was calculated using (one site binding competition analysis) GraphPad Prism5 as a measure of receptor affinity.

Row | IC50 | Binder
5 | 577 pM | B1
6 | 100 pM | B2
7 | 878 pM | B3
8 | 411 pM | B4

Target: T1, human calcitonin receptor
Experiment: SPA competition binding, membranes with human calcitonin receptor, displacement of 125I-calcitonin (Assay VII)
Procedure, shortened: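 BHK hCTR membranes 35 ng/μL + SPA beads 0.05 mg/well; buffer 50 mM Hepes pH 7.4, 1 mM CaCl2, 5 mM MgCl₂, 0.1% OA, 0.02% Tween20. 120 min, 25° C., shaking. Scintillation count; IC50 by one-site binding competition.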

Row | IC50 | Binder
9 | 8010 pM | B1
10 | 1090 pM | B2
11 | 10900 pM | B3
12 | 19500 pM | B4
